Experimental findings from patent publication US20230295310A1 (ABCELLERA BIOLOGICS, published 2023) are described below.

One experiment addresses T1, cynomolgus monkey CD3 (cynomolgus monkey, UniProt Q95LI5 22-198; Q95LI8 22-171; Q95LI7 23-181).
T1 construct: whole, on cells; CD3 on purified cynomolgus monkey CD3 pan T cells; also called cyno CD3; CD3 on cyno primary T cells
Description: flow cytometry, cyno primary T cells. Summed up: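 Binding readout: MFI divided by isotype-control MFI (fold over isotype), positive at ≥10. Cells were stained with 25 nM antibody, 30 min, 4° C, in PBS/2% FBS before flow cytometry.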

The target of the next experiment is EGFR on HeLa cells (UniProt P00533 25-1210, limits assumed). Description: cell-based or functional assay.

T1 sequence (Q95LI5 22-198, chain 1 of 3): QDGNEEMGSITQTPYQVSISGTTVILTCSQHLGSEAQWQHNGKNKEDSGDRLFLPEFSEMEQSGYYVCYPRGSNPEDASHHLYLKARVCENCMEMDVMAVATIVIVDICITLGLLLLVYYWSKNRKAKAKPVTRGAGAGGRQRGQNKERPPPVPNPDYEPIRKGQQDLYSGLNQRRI
T1 sequence (Q95LI8 22-171, chain 2 of 3): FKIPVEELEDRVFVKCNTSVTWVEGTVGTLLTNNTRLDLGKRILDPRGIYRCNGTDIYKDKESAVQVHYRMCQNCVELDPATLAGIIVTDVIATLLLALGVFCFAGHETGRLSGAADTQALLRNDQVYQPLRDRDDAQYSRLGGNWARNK
T1 sequence (Q95LI7 23-181, chain 3 of 3): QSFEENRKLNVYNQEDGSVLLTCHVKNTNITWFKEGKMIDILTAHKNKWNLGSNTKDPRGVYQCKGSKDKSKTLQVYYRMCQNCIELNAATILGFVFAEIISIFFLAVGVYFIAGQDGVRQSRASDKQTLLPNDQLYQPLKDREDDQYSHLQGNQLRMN

B1: mAb 314 (antibody, V domains shown)
VH: EVQLLESGGGLVQPGGSLRLSCAASGFTFSSYAMSWVRQAPGKGLEWVSVISGSGGNKNYADSVKGRFTISRDNSKNTLYLQMNSLRAEDTAVYYCAKKFSYYYYYMDVWGKGTTVTVSS
VL: SYELTQPLSVSVALGQTARITCGGNNIGSKDVHWYQQKPGQAPVLVIYRDSNRPSGIPERFSGSNSGNTATLTISRAQAGDEADYYCQVWDSRTAVFGGGTQLTAL
notes: VH and VL only
Turning to B1, the binding result with cynomolgus monkey CD3 is reported as “no binding (tested: FOI ≥10 = positive; 25 nM)”.

B2: GOMP001_bsAb_051 (bispecific antibody, human IgG1, kappa, L234A L235A)
heavy 1: QVQLVQSGAEVKKPGASVKVSCKASGYTFTSHWMHWVRKAPGQGLEWIGEFNPSNGRTNYNEEFKSKATMTVDTSTNTAYMELSSLRSEDTAVYYCASRDYDYDGRYFDYWGQGTLVTVSSASTKGPSVFPLAPSSKSTSGGTAALGCLVADYFPEPVTVSWNSGALTSGVHTFPAVLQSSGLYSLSSVVTVPSSSLGTQTYICNVNHKPSNTKVDEKVEPKSCDKTHTCPPCPAPEAAGGPSVFLFPPKPKDTLMISRTPEVTCVVVDVSHEDPEVKFNWYVDGVEVHNAKTKPREEQYNSTYRVVSVLTVLHQDWLNGKEYKCKVSNKALPAPIEKTISKAKGQPREPQVYTLPPSREEMTDNQVSLTCLVKGFYPSDIAVEWESNGQPENNYKTTPPVLMSDGSFFLASKLTVDKSRWQQGNVFSCSVMHEALHNHYTQKSLSLSPG
light 1: RIQMTQSPSSLSASVGDRVTITCSASSSVTYMYWYQDKPGKAPKLLIYDTSNLASGVPSRFSGSGSGTDYTFTISSLQPEDIATYYCQQWSSHIFTFGQGTKVEIKRTVAAPSVFIFPPSDKQLKSGTARVVCLLNNFYPREAKVQWKVDNALQSGNSQESVTEQDSKDSTYSLSSTLTLSKADYEKHKVYACEVTHQGLSSPVTKSFNRGEC
heavy 2: QVQLVQSGAEVKKPGASVKVSCKASGYTFTSYYIHWVRYAPGQGLDWMGIINPSGGITGYAQKLQGRVTMTRDTSTTTVYMELSSLRSDDTAVYYCARGVRGNYYYYYMDVWGRGTTVTVSSASTKGPSVFPLAPSSKSTSGGTAALGCLVKDYFPEPVTVSWNSGALTSGVHTFPAVLQSSGLYSLSSVVTVPSSSLGTQTYICNVNHKPSNTKVDKKVEPKSCDKTHTCPPCPAPEAAGGPSVFLFPPKPKDTLMISRTPEVTCVVVDVSHEDPEVKFNWYVDGVEVHNAKTKPREEQYNSTYRVVSVLTVLHQDWLNGKEYKCKVSNKALPAPIEKTISKAKGQPRRPRVYTLPPSREEMTKNQVSLVCLVKGFYPSDIAVEWESNGQPENNYKTTPPVLDSDGSFFLYSVLTVDKSRWQQGNVFSCSVMHEALHNHYTQKSLSLSPG
light 2: EIVLTQSPDFQSVTPKEKVTITCRASQSIGSKLHWYQRKPDDSPKLLIKYASQSFSGVPSRFSGSGSGTDFNLTINSLEAEDAATFYCHQSSGLPYTFGQGTKLEIKRTVAAPSVFIFPPSDEQLKSGTASVVCLLNNFYPREAKVQWKVDNALQSGNSQESVTEQDSKDSTYSLSSTLTLSKADYEKHKVYACEVTHQGLSSPVTKSFNRGEC
Take B2: in the experiment with EGFR on HeLa cells, the Max killing % was 60.2%.

B3: GOMP001_bsAb_055 (bispecific antibody, human IgG1, kappa, L234A L235A)
heavy 1: QVQLVQSGAEVKKPGASVKVSCKASGYTFTSHWMHWVRKAPGQGLEWIGEFNPSNGRTNYNEEFKSKATMTVDTSTNTAYMELSSLRSEDTAVYYCASRDYDYDGRYFDYWGQGTLVTVSSASTKGPSVFPLAPSSKSTSGGTAALGCLVADYFPEPVTVSWNSGALTSGVHTFPAVLQSSGLYSLSSVVTVPSSSLGTQTYICNVNHKPSNTKVDEKVEPKSCDKTHTCPPCPAPEAAGGPSVFLFPPKPKDTLMISRTPEVTCVVVDVSHEDPEVKFNWYVDGVEVHNAKTKPREEQYNSTYRVVSVLTVLHQDWLNGKEYKCKVSNKALPAPIEKTISKAKGQPREPQVYTLPPSREEMTDNQVSLTCLVKGFYPSDIAVEWESNGQPENNYKTTPPVLMSDGSFFLASKLTVDKSRWQQGNVFSCSVMHEALHNHYTQKSLSLSPG
light 1: RIQMTQSPSSLSASVGDRVTITCSASSSVTYMYWYQDKPGKAPKLLIYDTSNLASGVPSRFSGSGSGTDYTFTISSLQPEDIATYYCQQWSSHIFTFGQGTKVEIKRTVAAPSVFIFPPSDKQLKSGTARVVCLLNNFYPREAKVQWKVDNALQSGNSQESVTEQDSKDSTYSLSSTLTLSKADYEKHKVYACEVTHQGLSSPVTKSFNRGEC
heavy 2: EVNLVESGGGLVQPGRSLRLSCAASGFTFDDYTMHWVRYVPGKGLEWVSNISWNSGSLGYADRVKGRFTISRDNAKDSLYLQMNSLRVEDTALYYCAKDSSGYGHYNSYYMDVWGRGTTVTVSSASTKGPSVFPLAPSSKSTSGGTAALGCLVKDYFPEPVTVSWNSGALTSGVHTFPAVLQSSGLYSLSSVVTVPSSSLGTQTYICNVNHKPSNTKVDKKVEPKSCDKTHTCPPCPAPEAAGGPSVFLFPPKPKDTLMISRTPEVTCVVVDVSHEDPEVKFNWYVDGVEVHNAKTKPREEQYNSTYRVVSVLTVLHQDWLNGKEYKCKVSNKALPAPIEKTISKAKGQPRRPRVYTLPPSREEMTKNQVSLVCLVKGFYPSDIAVEWESNGQPENNYKTTPPVLDSDGSFFLYSVLTVDKSRWQQGNVFSCSVMHEALHNHYTQKSLSLSPG
light 2: DIQMTQSPSSLSASVGDRVTITCRASQSIRNYLNWYQRKPGDAPKVLIYSASSLQSGVPSRFSGSGSGTDFTLTISSLQPEDFASFYCQQTYSTPITFGQGTRLEIKRTVAAPSVFIFPPSDEQLKSGTASVVCLLNNFYPREAKVQWKVDNALQSGNSQESVTEQDSKDSTYSLSSTLTLSKADYEKHKVYACEVTHQGLSSPVTKSFNRGEC
With B3, in the experiment with EGFR on HeLa cells, the Max killing % turned out to be 78% and the “X… HeLa EC50” value was 0.182 nM.

B4: GOMP001_bsAb_056 (bispecific antibody)
heavy 1: EVNLVESGGGLVQPGRSLRLSCAASGFTFDDYTMHWVRKVPGKGLEWVSNISWNSGSLGYADEVKGRFTISRDNAKDSLYLQMNSLRVEDTALYYCAKDSSGYGHYNSYYMDVWGKGTTVTVSSASTKGPSVFPLAPSSKSTSGGTAALGCLVADYFPEPVTVSWNSGALTSGVHTFPAVLQSSGLYSLSSVVTVPSSSLGTQTYICNVNHKPSNTKVDEKVEPKSCDKTHTCPPCPAPEAAGGPSVFLFPPKPKDTLMISRTPEVTCVVVDVSHEDPEVKFNWYVDGVEVHNAKTKPREEQYNSTYRVVSVLTVLHQDWLNGKEYKCKVSNKALPAPIEKTISKAKGQPREPQVYTLPPSREEMTDNQVSLTCLVKGFYPSDIAVEWESNGQPENNYKTTPPVLMSDGSFFLASKLTVDKSRWQQGNVFSCSVMHEALHNHYTQKSLSLSPG
light 1: RIQMTQSPSSLSASVGDRVTITCRASQSIRNYLNWYQDKPGKAPKVLIYSASSLQSGVPSRFSGSGSGTDFTLTISSLQPEDFASFYCQQTYSTPITFGQGTRLEIKRTVAAPSVFIFPPSDKQLKSGTARVVCLLNNFYPREAKVQWKVDNALQSGNSQESVTEQDSKDSTYSLSSTLTLSKADYEKHKVYACEVTHQGLSSPVTKSFNRGEC
heavy 2: QVQLVQSGAEVKKPGASVKVSCKASGYTFTSHWMHWVRYAPGQGLEWIGEFNPSNGRTNYNEKFKSKATMTVDTSTNTAYMELSSLRSEDTAVYYCASRDYDYDGRYFDYWGRGTLVTVSSASTKGPSVFPLAPSSKSTSGGTAALGCLVKDYFPEPVTVSWNSGALTSGVHTFPAVLQSSGLYSLSSVVTVPSSSLGTQTYICNVNHKPSNTKVDKKVEPKSCDKTHTCPPCPAPEAAGGPSVFLFPPKPKDTLMISRTPEVTCVVVDVSHEDPEVKFNWYVDGVEVHNAKTKPREEQYNSTYRVVSVLTVLHQDWLNGKEYKCKVSNKALPAPIEKTISKAKGQPRRPRVYTLPPSREEMTKNQVSLVCLVKGFYPSDIAVEWESNGQPENNYKTTPPVLDSDGSFFLYSVLTVDKSRWQQGNVFSCSVMHEALHNHYTQKSLSLSPG
light 2: DIQMTQSPSSLSASVGDRVTITCSASSSVTYMYWYQRKPGDAPKLLIYDTSNLASGVPSRFSGSGSGTDYTFTISSLQPEDIATYYCQQWSSHIFTFGQGTKVEIKRTVAAPSVFIFPPSDEQLKSGTASVVCLLNNFYPREAKVQWKVDNALQSGNSQESVTEQDSKDSTYSLSSTLTLSKADYEKHKVYACEVTHQGLSSPVTKSFNRGEC
For the molecule B4, in the experiment with EGFR on HeLa cells, the Max killing % stood at 96.3% and the “X… HeLa EC50” value was 0.0135 nM.
